From publication PMC4810121, “Proteomics Analysis Reveals Novel RASSF2 Interaction Partners” (Cancers, 2016)

Target: T1, RASSF2 (expression construct precipitated with anti-Flag) (UniProt P50749 1-326)
T1 construct: RASSF2; The methods describe no Flag-tagged construct; That RASSF2 carried the Flag tag is surmised, because C1QBP is the GFP-tagged partner and the blot used anti-Flag and anti-GFP; source: HEK-293T, transfected, in lysate
T1 sequence (looked up): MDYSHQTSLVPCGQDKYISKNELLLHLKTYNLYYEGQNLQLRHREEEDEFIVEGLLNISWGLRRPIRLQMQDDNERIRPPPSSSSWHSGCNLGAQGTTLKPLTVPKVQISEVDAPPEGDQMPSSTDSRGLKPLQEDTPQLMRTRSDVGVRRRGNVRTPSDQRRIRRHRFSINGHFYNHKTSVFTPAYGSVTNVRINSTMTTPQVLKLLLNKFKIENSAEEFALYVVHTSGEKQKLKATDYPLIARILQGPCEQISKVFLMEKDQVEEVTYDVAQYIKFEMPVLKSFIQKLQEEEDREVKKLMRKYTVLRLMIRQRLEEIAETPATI
Test: co-IP; HEK-293T co-transfected with RASSF2, C1QBP and with or without activated K-Ras for 24 hours; lysates immunoprecipitated with anti-Flag, blotted with anti-Flag and anti-GFP
Details: partners not purified

- fold change of the co-precipitate with activated Ras against without: ~2 fold
B1: GFP-C1QBP (natural protein, UniProt Q07021 74-282, looked up)
chain: LHTDGDKAFVDFLSDEIKEERKIQKHKTLPKMSGGWELELNGTEAKLVRKVAGEKITVTFNINNSIPPTFDGEEEPSQGQKVEEQEPELTSTPNFVVEVIKNDDGKKALVLDCHYPEDEVGQEDEAESDIFSIREVSFQSTGESEWKDTNYTLNTDSLDWALYDHLMDFLADRGVDNTFADELVELSTALEHQEYITFLEDLKSFVKSQ
notes: C1QBP; cDNA from GeneCopoeia, PCR amplified and cloned into pEGFP-C1; source: HEK-293T, transfected, in lysate
